The target in the assay is T1, purified, activated recombinant human PR-3 (from proPR-3 secreted by Sf9 insect cells, activated with DPPI) (human, UniProt P24158 28-256).
T1 sequence: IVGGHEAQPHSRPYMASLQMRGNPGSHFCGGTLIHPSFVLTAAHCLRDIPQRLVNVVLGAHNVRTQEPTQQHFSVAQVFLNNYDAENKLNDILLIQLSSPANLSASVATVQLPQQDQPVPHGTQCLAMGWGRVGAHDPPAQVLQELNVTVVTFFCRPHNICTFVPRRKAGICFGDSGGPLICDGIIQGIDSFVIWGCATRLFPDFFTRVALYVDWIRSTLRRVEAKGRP
In words: cell-based or functional assay.

The star is where a group is joined. P(O)(OPh)2 = diphenyl phosphonate replacing C-terminal COOH, O=P(Oc1ccccc1)(Oc1ccccc1)*; Boc = CC(C)(C)OC(=O)*

On to Boc-Val-Pro-Val-{P(O)(OPh)2} [Boc-Val-Pro-Val-p(OPh)2], for which the “IC50 of residual enzyme activity (Boc-Ala-ONp substrate, 1 hour at 25° C.)” value was about 0.4 µM.

In the case of Boc-Ala-Pro-Val-{P(O)(OPh)2} [Boc-Ala-Pro-Val-p(OPh)2], the “IC50 of residual enzyme activity (Boc-Ala-ONp substrate, 1 hour at 25° C.)” value was about 10 µM.

The values are drawn from patent US6586222 (CHIRON, dated 2003).
